The supplement of paper PMC5998384

Key:
HeLa Kyoto [1] = assay: thermal stability score vs G1/S (z-score of summed log2 fold changes over temperatures); higher = more thermally stable than in G1/S
HeLa Kyoto [2] = assay: solubility in G1/S (NP-40 vs SDS abundance) (log2 ratio); higher = more soluble; conditions: cell cycle stage: G1/S
HeLa Kyoto [3] = assay: solubility change mitosis vs G1/S (difference of NP-40 vs SDS log2 ratios) (log2 ratio difference); higher = more soluble in mitosis
HeLa Kyoto [4] = assay: melting temperature (median over replicates), in situ; higher = more thermally stable
[5] = cell cycle stage: early G1 (4.5 h after nocodazole release)
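Wherever melting temperature (median over replicates), in situ is given: HeLa Kyoto cells synchronized by double thymidine or nocodazole block, proteins quantified by TMT10plex mass spectrometry, three independent biological replicates.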
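Wherever solubility change mitosis vs G1/S (difference of NP-40 vs SDS log2 ratios) is given: synchronized HeLa Kyoto cells (double thymidine block for G1/S, nocodazole release for mitosis), protein amounts in NP-40 versus SDS lysates quantified by mass spectrometry, three biological replicates.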
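Wherever solubility in G1/S (NP-40 vs SDS abundance) is given: HeLa Kyoto cells arrested at G1/S by double thymidine block, proteins quantified by TMT10plex mass spectrometry in mild NP-40 versus SDS extracts, three biological replicates.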
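Wherever thermal stability score vs G1/S (z-score of summed log2 fold changes over temperatures) is given: synchronized HeLa Kyoto cells, proteins quantified by TMT10plex mass spectrometry, three biological replicates, mitosis taken 0.5 h after nocodazole release, G1/S directly after double thymidine block.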

Row | Sequence | thermal stability score (HeLa Kyoto [1]; [5]) | thermal stability score (HeLa Kyoto [1]; cell cycle stage: mitosis) | solubility in G1/S (log2) (HeLa Kyoto [2]) | solubility change mitosis (log2) (HeLa Kyoto [3]) | melting temperature (HeLa Kyoto [4]; cell cycle stage: G1/S) | melting temperature (HeLa Kyoto [4]; cell cycle stage: mitosis)
1 | MGGVGEPGPREGPAQPGAPLPTFCWEQIRAHDQPGDKWLVIERRVYDISRWAQRHPGGSRLIGHHGAEDATDAFRAFHQDLNFVRKFLQPLLIGELAPEEPSQDGPLNAQLVEDFRALHQAAEDMKLFDASPTFFAFLLGHILAMEVLAWLLIYLLGPGWVPSALAAFILAISQAQSWCLQHDLGHASIFKKSWWNHVAQKFVMGQLKGFSAHWWNFRHFQHHAKPNIFHKDPDVTVAPVFLLGESSVEYGKKKRRYLPYNQQHLYFFLIGPPLLTLVNFEVENLAYMLVCMQWADLLWAASFYARFFLSYLPFYGVPGVLLFFVAVRVLESHWFVWITQMNHIPKEIGHEKHRDWVSSQLAATCNVEPSLFTNWFSGHLNFQIEHHLFPRMPRHNYSRVAPLVKSLCAKHGLSYEVKPFLTALVDIVRSLKKSGDIWLDAYLHQ [FADS3] | -1.31 | -0.774 | -0.263 | 0.0263 | 54.5 °C | 53.9 °C
2 | MGIKVQRPRCFFDIAINNQPAGRVVFELFSDVCPKTCENFRCLCTGEKGTGKSTQKPLHYKSCLFHRVVKDFMVQGGDFSEGNGRGGESIYGGFFEDESFAVKHNKEFLLSMANRGKDTNGSQFFITTKPTPHLDGHHVVFGQVISGQEVVREIENQKTDAASKPFAEVRILSCGELIPKSKVKKEEKKRHKSSSSSSSSSSDSDSSSDSQSSSDSSDSESATEEKSKKRKKKHRKNSRKHKKEKKKRKKSKKSASSESEAENLEAQPQSTVRPEEIPPIPENRFLMRKSPPKADEKERKNRERERERECNPPNSQPASYQRRLLVTRSGRKIKGRGPRRYRTPSRSRSRDRFRRSETPPHWRQEMQRAQRMRVSSGERWIKGDKSELNEIKENQRSPVRVKERKITDHRNVSESPNRKNEKEKKVKDHKSNSKERDIRRNSEKDDKYKNKVKKRAKSKSRSKSKEKSKSKERDSKHNRNEEKRMRSRSKGRDHENVKEKEKQSDSKGKDQERSRSKEKSKQLESKSNEHDHSKSKEKDRRAQSRSRECDITKGKHSYNSRTRERSRSRDRSRRVRSRTHDRDRSRSKEYHRYREQEYRRRGRSRSRERRTPPGRSRSKDRRRRRRDSRSSEREESQSRNKDKYRNQESKSSHRKENSESEKRMYSKSRDHNSSNNSREKKADRDQSPFSKIKQSSQDNELKSSMLKNKEDEKIRSSVEKENQKSKGQENDHVHEKNKKFDHESSPGTDEDKSG [PPIG] | 1.25 | 2.05 | -1.67 | 0.846 | 45.8 °C | 47.6 °C
3 | MGIQGGSVLFGLLLVLAVFCHSGHSLQCYNCPNPTADCKTAVNCSSDFDACLITKAGLQVYNKCWKFEHCNFNDVTTRLRENELTYYCCKKDLCNFNEQLENGGTSLSEKTVLLLVTPFLAAAWSLHP [CD59] | -2.05 | -3.23 | -0.814 | -0.0336 | 56.8 °C | 64.9 °C
4 | MGKGCKVVVCGLLSVGKTAILEQLLYGNHTIGMEDCETMEDVYMASVETDRGVKEQLHLYDTRGLQEGVELPKHYFSFADGFVLVYSVNNLESFQRVELLKKEIDKFKDKKEVAIVVLGNKIDLSEQRQVDAEVAQQWAKSEKVRLWEVTVTDRKTLIEPFTLLASKLSQPQSKSSFPLPGRKNKGNSNSEN [NKIRAS1] | 2.91e-19 | -1.95e-17 | 0.0841 | -0.0109 | 48.9 °C | 48.6 °C
5 | MGKKSRVKTQKSGTGATATVSPKEILNLTSELLQKCSSPAPGPGKEWEEYVQIRTLVEKIRKKQKGLSVTFDGKREDYFPDLMKWASENGASVEGFEMVNFKEEGFGLRATRDIKAEELFLWVPRKLLMTVESAKNSVLGPLYSQDRILQAMGNIALAFHLLCERASPNSFWQPYIQTLPSEYDTPLYFEEDEVRYLQSTQAIHDVFSQYKNTARQYAYFYKVIQTHPHANKLPLKDSFTYEDYRWAVSSVMTRQNQIPTEDGSRVTLALIPLWDMCNHTNGLITTGYNLEDDRCECVALQDFRAGEQIYIFYGTRSNAEFVIHSGFFFDNNSHDRVKIKLGVSKSDRLYAMKAEVLARAGIPTSSVFALHFTEPPISAQLLAFLRVFCMTEEELKEHLLGDSAIDRIFTLGNSEFPVSWDNEVKLWTFLEDRASLLLKTYKTTIEEDKSVLKNHDLSVRAKMAIKLRLGEKEILEKAVKSAAVNREYYRQQMEEKAPLPKYEESNLGLLESSVGDSRLPLVLRNLEEEAGVQDALNIREAISKAKATENGLVNGENSIPNGTRSENESLNQESKRAVEDAKGSSSDSTAGVKE [SETD3] | 1.13 | 1.44 | -0.0122 | -0.0646 | 52.8 °C | 53.5 °C
6 | MGKRGSRSQSQLLNTLTKKQKKHLRDFGEEHPFYDRVSRKEAKPQICQLSESSDSSDSESDSESEPQQVSGYHRLLATLKNVSEEEEEDEEEEEEEDSIVDDAEMNDEDGGSDVSVEEEMAAESTESPENVALSADPEGKEDGEEPPGTSQTSPEEFTDAKHESLFSLETNFLEEESGDNSSLKASQDPFLQHVNKELKEKAIQAVATNPKTTHELKWPILGQLFFSSKFQKLETFKPPKDIDLKSLHLQKPLESTWTKTNSQFLSGPQKSSSPFTPLQKELFLIMNSYRDLFYPERTALKNGEEIRHVYCLHVINHILKANAQVLGNNSRRRSQKFGVGDDDDFRDQGLTRPKVLIVVPFREAALRVVQLFISLLEGDSKKKIIVSNKKRFQGEYGSDPEERPPNLKRPEDYEAVFVGNIDDHFRIGVAILQRSIRLYAPFYSSDILIASPLGLRTIIGGEGEKKRDFDFLSSIELLIIDQADIYLMQNWEHVLHLMNHMNLLPLDSHGVDFSRVRMWSLNNWSKYYRQTLLFGALQDAQINSVFNKYCVNMQGQVAVRNVPMTGSISHVLVQLPHVFQRMEAENLASVIDARFNFFVNKILPQYRDAVMSHTLIYIPSYFDFVRLRNYFKKEELNFTHICEYTQKSGVSRARHFFLQGEKQFLLFTERFHFYKRYTIKGIRNLIFYELPTYPHFYSEICNMLRATNRGEEATWTCTVLYSKYDAQRLAAVVGVERAAQMLQSNKNVHLFITGEK [DIEXF] | 0.651 | 2.11 | -0.69 | 0.17 | 47.2 °C | 49.3 °C
